One data set has as its target T1, MdHY5 (apple, UniProt L0MZN5 1-164).
T1 sequence: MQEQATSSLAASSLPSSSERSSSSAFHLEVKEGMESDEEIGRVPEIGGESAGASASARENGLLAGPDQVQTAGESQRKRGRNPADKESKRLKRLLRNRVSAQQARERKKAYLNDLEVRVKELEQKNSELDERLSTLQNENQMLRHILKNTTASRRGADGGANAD
Put plainly: EMSA; LightShift Chemiluminescent EMSA kit (Thermo); buffer, salt, pH and temperature not stated; cold probe 25x, 50x, 100x. Conditions: protein: recombinant; tags: His (pET32a fusion); chain copies: 2; label: 3' biotin on both strands; blunt.

In data set [1] the target is T2, MdEIL1 (labelled MdEIN3-HIS in the Fig. 7d figure text);MdHY5 (apple;apple, UniProt D5L144;L0MZN5 1-659;1-164, |).
T2 sequence 1: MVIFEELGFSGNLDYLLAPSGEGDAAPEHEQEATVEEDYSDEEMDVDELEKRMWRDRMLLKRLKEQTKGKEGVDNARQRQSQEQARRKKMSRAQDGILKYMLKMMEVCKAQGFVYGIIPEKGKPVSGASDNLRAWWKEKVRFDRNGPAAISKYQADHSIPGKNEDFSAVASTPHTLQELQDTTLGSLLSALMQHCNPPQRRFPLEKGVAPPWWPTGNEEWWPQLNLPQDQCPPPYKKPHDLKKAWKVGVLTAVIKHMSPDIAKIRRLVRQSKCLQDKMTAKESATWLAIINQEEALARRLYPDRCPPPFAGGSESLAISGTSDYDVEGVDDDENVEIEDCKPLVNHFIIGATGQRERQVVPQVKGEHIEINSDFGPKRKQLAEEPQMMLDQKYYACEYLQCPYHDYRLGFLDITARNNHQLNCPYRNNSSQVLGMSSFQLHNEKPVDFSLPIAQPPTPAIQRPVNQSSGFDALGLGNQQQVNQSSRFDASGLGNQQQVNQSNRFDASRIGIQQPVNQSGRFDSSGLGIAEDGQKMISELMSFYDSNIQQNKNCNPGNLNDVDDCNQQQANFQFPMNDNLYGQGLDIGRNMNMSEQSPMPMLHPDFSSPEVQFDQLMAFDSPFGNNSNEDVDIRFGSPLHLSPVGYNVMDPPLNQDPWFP
T2 sequence 2: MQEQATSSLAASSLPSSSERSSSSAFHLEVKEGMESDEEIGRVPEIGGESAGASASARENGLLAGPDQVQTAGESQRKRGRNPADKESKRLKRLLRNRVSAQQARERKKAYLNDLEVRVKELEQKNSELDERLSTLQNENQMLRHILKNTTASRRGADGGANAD
Put plainly: EMSA; MdEIL1 added to MdHY5 enhances binding; LightShift Chemiluminescent EMSA kit (Thermo); buffer, salt, pH and temperature not stated; cold probe 25x, 50x, 100x. Conditions: protein: recombinant;recombinant; tags: His (pET32a fusion);His (pET32a fusion); label: 3' biotin on both strands; blunt. (In EMSA bound probe runs differently from free probe, usually more slowly.)

Data set [2] has as its target T3, MdEIL1 (labelled MdEIN3-HIS in the Fig. 7d figure text) (apple, UniProt D5L144 1-659).
T3 sequence: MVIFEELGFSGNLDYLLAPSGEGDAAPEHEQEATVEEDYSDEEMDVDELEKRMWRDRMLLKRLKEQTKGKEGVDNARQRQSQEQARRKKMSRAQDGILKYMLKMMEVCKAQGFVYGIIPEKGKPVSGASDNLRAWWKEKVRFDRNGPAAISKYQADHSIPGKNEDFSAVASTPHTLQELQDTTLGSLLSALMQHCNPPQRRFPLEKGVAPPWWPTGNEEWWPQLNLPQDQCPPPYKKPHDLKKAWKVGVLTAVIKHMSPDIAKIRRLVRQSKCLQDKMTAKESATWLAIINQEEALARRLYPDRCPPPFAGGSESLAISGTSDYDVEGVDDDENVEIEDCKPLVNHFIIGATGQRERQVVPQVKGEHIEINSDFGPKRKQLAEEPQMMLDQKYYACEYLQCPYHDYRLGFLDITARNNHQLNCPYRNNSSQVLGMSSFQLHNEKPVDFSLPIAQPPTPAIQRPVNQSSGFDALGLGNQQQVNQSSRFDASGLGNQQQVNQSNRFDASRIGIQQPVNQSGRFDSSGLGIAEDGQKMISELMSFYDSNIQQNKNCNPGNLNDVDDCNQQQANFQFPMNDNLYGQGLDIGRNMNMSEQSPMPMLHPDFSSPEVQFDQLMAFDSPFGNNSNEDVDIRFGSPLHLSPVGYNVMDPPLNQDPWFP
The experiment in a line: EMSA; LightShift Chemiluminescent EMSA kit (Thermo); buffer, salt, pH and temperature not stated; cold probe 25x, 50x, 100x. Conditions: protein: recombinant; tags: His (pET32a fusion); label: 3' biotin on both strands; blunt.

Data set [3] has as its target T2, MdEIL1 (labelled MdEIN3-HIS in the Fig. …). The experiment in a line: EMSA; MdHY5 added to MdEIL1 enhances binding; LightShift Chemiluminescent EMSA kit (Thermo); buffer, salt, pH and temperature not stated; cold probe 25x, 50x, 100x. Conditions: protein: recombinant;recombinant; tags: His (pET32a fusion);His (pET32a fusion); label: 3' biotin on both strands; blunt.

For data set [4] the target is unchanged. Put plainly: EMSA; MdHY5 with MdEIL1 enhances binding; LightShift Chemiluminescent EMSA kit (Thermo); buffer, salt, pH and temperature not stated; cold probe 25x, 50x, 100x. Conditions: protein: recombinant;recombinant; tags: His (pET32a fusion);His (pET32a fusion); label: 3' biotin on both strands; blunt.

This is an account of results in publication PMC11997652, “Transcription factors MdEIL1 and MdHY5 integrate ethylene and light signaling to promote chlorophyll degradation in mature apple peels”.

B1: MdERF17-G-box2 hot probe (dsDNA)
DNA 1: ATCATATACATATATATATGCACGTTGAAAACTTAGCTCCTTTGTT
DNA 2: AACAAAGGAGCTAAGTTTTCAACGTGCATATATATATGTATATGAT
For the molecule B1, the binding result in the data set with MdHY5 is recorded as “no binding”.

B2: MdERF17-G-box3 hot probe (dsDNA)
DNA 1: CCGTATGAGGACAAATAACACACGTGCTTCGAAACCCGTCTCTCTG
DNA 2: CAGAGAGACGGGTTTCGAAGCACGTGTGTTATTTGTCCTCATACGG
As for B2, the binding result (with MdHY5; in data set [1]) was “binds” each time.

B3: MdERF17-TACAT3 hot probe (dsDNA)
DNA 1: GGTGAGGTTTGGGTTGAATTTACATAATGAGTCACTCATAGTAAA
DNA 2: TTTACTATGAGTGACTCATTATGTAAATTCAACCCAAACCTCACC
For the molecule B3, the binding result in data set [2] and in data set [3] was “binds” in each case.

B4: MdHY5-TACAT hot probe (dsDNA)
DNA 1: GCTTCCCCGTAACCAAGAAATACATGCATTTTCCGTCCAGCACAC
DNA 2: GTGTGCTGGACGGAAAATGCATGTATTTCTTGGTTACGGGGAAGC
With B4, the binding result in data set [2] and in data set [4] was “binds” throughout.

B5: MdERF17-G-box1 hot probe (dsDNA)
DNA 1: GTGTGTTTTATTGCATCATTCACGTGTCATCTTTGCAAAAAATTAG
DNA 2: CTAATTTTTTGCAAAGATGACACGTGAATGATGCAATAAAACACAC
In the case of B5, the binding result in the data set with MdHY5 is recorded as “no binding”.
